Test results taken from US12337037B2, “Taxol conjugate compounds, pharmaceutical compositions comprising the same, and methods for their use” (N1 Life, Inc, priority 2021, dated 2025).
Like-named read-outs stand apart in the source and are kept apart here.

Key:
Stability in plasma, dog = assay type: in vitro ADME; settings: for half-life: 37° C., read-out: Mean T1/2 (converted)
Procedure: (§1) Working solutions of test compounds were prepared in PBS (pH 7.4). Propantheline was used as positive control for human, monkey, dog and mouse plasma in the assay. Mevinolin was used as positive control for rat plasma in this assay. 1 mM propantheline working solution was prepared in acetonitrile. 1 mM mevinolin working solution was prepared in DMSO. Incubation buffer of 475 μL plasma for each cell was added into the incubation plate and pre-warmed at 37° C. for 15 minutes. After the pre-incubation, 25 μL of working solution (test compounds or control compounds) was spiked to plasma. For Compound 5 and Compound 3, the final concentration of organic concentration was 0%. For Taxol, the final concentration of organic solvents was 0.25%. The assay was performed in duplicate. The reaction samples were incubated at 37° C. Aliquots of 50 μL were taken from the reaction samples at 0, 0.25, 0.5, 1, 2, 4, 6, 8 and 24 hours. The reactions were stopped by the addition of 450 μL of ice-cold quench solution (methanol with 2% FA containing internal standards). All samples were vortexed for 10 minutes, following by centrifugation at 3,220 g for 30 minutes to precipitate proteins. 100 μL of the supernatant from each well was transferred to a new plate. The supernatant was diluted with ultrapure water. Samples were analyzed by LC-MS/MS. All calculations were carried out using Microsoft Excel. Peak area ratios were determined from extracted ion chromatograms. Percent compounds remaining at each time point were calculated by the following equation: Remaining Percentaget min(%)=Peak Area Ratiot min/Peak Area Ratio0 min×100
(§2) Peak Area Ratiot min is peak area ratio of control and test compounds at t min; and
(§3) Peak Area Ratio0 min is peak area ratio of control and test compounds at zero time point.
(§4) The slope value, k, was determined by linear regression of the natural logarithm of the remaining percentage of the parent drug vs. incubation time curve.
(§5) The in vitro half-life (in vitro t1/2) was determined from the slope value: in vitro t1/2=(0.693/k)

Stability in buffer = assay type: physicochemical; settings: for half-life at 5 μM: buffer solution, read-out: Mean T 1/2 (converted)
Procedure: Working solutions of Compound 5 (1 mM of) and Compound 3 (1 mM) were prepared. Buffer solution (199 μL) was prepared and divided into fourteen incubation tubes. The tubes were then pre-warmed at 37° C. for 15 minutes. The 1 mM Compound 5 working solution was added to seven incubation tubes (1 μL each) for a final concentration of 5 μM and the 1 mM Compound 3 working solution was added to seven incubation tubes (1 μL each) for a final concentration of 5 μM. For Compound 5, the final concentration of organic solvents was 0.5%. Each samples was incubated at 37° C. for 0, 4, 8, 24, 48, 72, or 120 hours. The assay was performed in duplicate. After incubation for 0, 4, 8, 24, 48, 72 or 120 hours, reactions were quenched by the addition of 1000 μL methanol (pre-cool treatment under 4° C.) with 2% FA containing internal standards. All samples were vortexed for 10 minutes. 150 μL of the supernatant from each sample was transferred to a new plate. 150 μL of pure water was added to each sample for analysis by LC-MS/MS (cooler temperature: 15° C.). All calculations were carried out using Microsoft Excel. Peak area ratios were determined from extracted ion chromatograms. Percent compounds remaining at each time point were calculated by the following equation: Remaining Percentaget min(%)=(Peak Area Ratiot min/Peak Area Ratio0 min)×100
Peak Area Ratiot min is peak area ratio of test compounds at t min; and
Peak Area Ratio0 min is peak area ratio of test compounds at zero time point.
as §4
The in vitro half-life (in vitro t1/2) was determined from the slope value: in vitro t1/2=(0.693/k) Appearance of Taxol concentration (nM)=Peak Area Ratio t min/Peak Area Ratio(Taxol: 5 μM)×5000% Appearance of Taxol=Peak Area Ratio min/Peak Area Ratio(Taxol: 5 μM)×100

[1] = Stability in plasma, human; assay type: in vitro ADME; settings: for half-life: 37° C., read-out: Mean T1/2 (converted)
Procedure: as §1, §2, §3, §4, §5

[2] = Stability in plasma, mouse; assay type: in vitro ADME; settings: for half-life: 37° C., read-out: Mean T1/2 (converted)
Procedure: as §1, §2, §3, §4, §5

Hep G2 cells = experiment: CCK-8 cytotoxicity / anti-proliferation assay, Hep G2; assay type: cell-based; settings: 2000 nM
Procedure: (§6) Cytotoxicity Assay—CCK8 Cancer Cells
(§7) The CCK-8 assay was applied to study the cytotoxicity of the peptide drug conjugates and their inhibition of proliferation of cancer cells. First, 2˜10×10^3 cells (depending on the rate of growth of different cell lines) with 100 μL, DMEM media were seeded in normal culture medium into each well of a 96-well plate. The cells were then cultured overnight at 37° C. with 4˜5% CO2. Different doses (4000, 2000, 1000, 500 nM for Hep3B, Hep G2 and MCF7/MBA-MD-231; 1000, 333.3, 100.0, 33.33, 3.333, 1.000, 0.333 nM for MCF7/ADR, 22Rv1, CNE1, HCT116, DLD-1) of Taxol and peptide drugs were added. After 48˜72 hour incubation, CCK-8 solution was added to each well. The cells were then incubated at 37° C. for 4 hours. The optical density was measured at 450/650 nm using a multiscan spectrometer (PerkinElmer's EnSpire Multilabel Plate Reader). The optical density is linearly proportional to the number of living cells in the sample: […]

[3] = tested on: human gastric cancer (NUGC-4) cells; experiment: Efficacy against gastric cancer; assay type: in vivo, mice; settings: NUGC-4 model; 9.6 mg/kg QD5 (days 0, 5, 10)
Procedure: The fluorescence area of the tumor was measured over the course of the study (FIG. 13). After approximately Day 15 in the mice administered PBS, the formation of bloody ascites blocked the fluorescence reading. […] FIG. 14 is a graph comparing the fluorescence area on Day 21 of the study of the mice administered vehicle and the mice administered Compound 3. FIG. 15 is a graph comparing the tumor weight of the mice administered vehicle and the mice administered Compound 3 on Day 21.

[4] = tested on: breast cancer MCF7/MBA-MD-231 cells; experiment: CCK-8 cytotoxicity / anti-proliferation assay, MCF7/MBA-MD-231; assay type: cell-based; settings: all tested concentrations (500-4000 nM)
Procedure: as §6, §7

[5] = tested on: human pancreatic cancer (BXPC-3) cells; experiment: Efficacy against pancreatic cancer; assay type: in vivo, mice; settings: BXPC-3 model; 9.6 mg/kg QD5 (days 0, 5, 10); vs vehicle
Procedure: Following the procedure described in Biological Example 5, mice were injected with human pancreatic cancer (BXPC-3) cells and treated with Compound 3 (9.6 mg/kg) QD5 (dosing on days 0, 5, and 10) to study the efficacy of Compound 3. […] FIG. 11 is a graph comparing the fluorescence area on Day 17 of the study of the mice administered vehicle and the mice administered Compound 3. FIG. 12 is a graph comparing the tumor weight of the mice administered vehicle and the mice administered Compound 3 on Day 17.

CC(=O)N[C@H](CSSCCCC(=O)O[C@@H](C(=O)O[C@H]1C[C@@]2(O)[C@@H](OC(=O)c3ccccc3)[C@@H]3[C@]4(OC(C)=O)CO[C@@H]4C[C@H](O)[C@@]3(C)C(=O)[C@H](OC(C)=O)C(=C1C)C2(C)C)[C@@H](NC(=O)c1ccccc1)c1ccccc1)C(=O)N[C@H](CCCNC(=N)N)C(=O)N[C@H](CCCNC(=N)N)C(=O)N[C@H](CCCNC(=N)N)C(=O)N[C@H](CCCNC(=N)N)C(=O)N[C@H](CCCNC(=N)N)C(=O)N[C@H](CCCNC(=N)N)C(=O)N[C@H](CCCNC(=N)N)C(=O)N[C@H](CCCNC(=N)N)C(N)=O [Compound 5, Ac-D-Cysteine (paclitaxel-4-mercaptobutanoate)-D-Arginine8-NH2]
half-life (Stability in plasma, dog): 166 min | half-life at 5 μM (Stability in buffer; buffer pH 5.5, 37° C.): 4.89 days | half-life at 5 μM (Stability in buffer; buffer pH 6.0, 37° C.): 3.9 days | half-life at 5 μM (Stability in buffer; buffer pH 6.5, 37° C.): 3.56 days | half-life at 5 μM (Stability in buffer; buffer pH 7.4, 37° C.): 2.06 days | half-life [1]: 61.8 min | half-life [2]: 47.4 min

CC(=O)N[C@@H](CSSCCCC(=O)OC(C(=O)O[C@H]1C[C@@]2(O)[C@@H](OC(=O)c3ccccc3)[C@@H]3[C@]4(OC(C)=O)CO[C@@H]4C[C@H](O)[C@@]3(C)C(=O)[C@H](OC(C)=O)C(=C1C)C2(C)C)[C@@H](NC(=O)c1ccccc1)c1ccccc1)C(=O)N[C@H](CCCNC(=N)N)C(=O)N[C@H](CCCNC(=N)N)C(=O)N[C@H](CCCNC(=N)N)C(=O)N[C@H](CCCNC(=N)N)C(=O)N[C@H](CCCNC(=N)N)C(=O)N[C@H](CCCNC(=N)N)C(=O)N[C@H](CCCNC(=N)N)C(=O)N[C@H](CCCNC(=N)N)C(N)=O (stereo partly drawn) [Compound 3, Ac-L-Cysteine (paclitaxel-4-mercaptobutanoate)-D-Arginine8-NH2]
Percent Increase of T1/2, Compound 3 over Compound 5 (Stability in plasma, dog): 1% | half-life (Stability in plasma, dog): 167 min | anti-proliferation effect compared to Taxol and Compound 5 (FIG. 2B) (Hep G2 cells): greater than the anti-proliferation effect of Taxol and Compound 5 | fluorescence area of the tumor over the course of the study (FIG. 13) [3]: fluorescence decreased over the course of the study | Percent Increase of T1/2, Compound 3 over Compound 5 (Stability in buffer; buffer pH 5.5): 6.05% | Percent Increase of T1/2, Compound 3 over Compound 5 (Stability in buffer; buffer pH 6.0): 6.36% | Percent Increase of T1/2, Compound 3 over Compound 5 (Stability in buffer; buffer pH 6.5): 8.01% | Percent Increase of T1/2, Compound 3 over Compound 5 (Stability in buffer; buffer pH 7.4): 10.67% | half-life at 5 μM (Stability in buffer; buffer pH 5.5, 37° C.): 5.19 days | half-life at 5 μM (Stability in buffer; buffer pH 6.0, 37° C.): 4.14 days | half-life at 5 μM (Stability in buffer; buffer pH 6.5, 37° C.): 3.85 days | half-life at 5 μM (Stability in buffer; buffer pH 7.4, 37° C.): 2.28 days | cancer cell inhibition compared to Compound 5 (FIG. 1) [4]: substantially superior to cancer cell inhibition compared to Compound 5 at all tested concentrations | fluorescence area of the tumor over the course of the study (FIG. 10) [5]: fluorescence area increased in the vehicle-administered mice to a greater degree over the course of the study compared to the Compound 3-administered mice | Percent Increase of T1/2, Compound 3 over Compound 5 [1]: 18.45% | half-life [1]: 73.2 min | Percent Increase of T1/2, Compound 3 over Compound 5 [2]: 34.18% | half-life [2]: 63.6 min
